Experimental data from article PMC11506342, “Ratiometric Electrochemical Detection of Interleukin-6 Using Electropolymerized Methylene Blue and a Multi-Walled Carbon-Nanotube-Modified Screen-Printed Carbon Electrode”.

Target: interleukin-6 (IL-6) (UniProt P05231 30-212)
Experiment: electrochemical aptasensor (DPV, [Fe(CN)6]3-/4- vs poly-methylene blue); aptamer immobilised on CS/MWCNT/pMB electrode, BSA blocked; 30 min incubation; linear 0.001-1000 ng/mL, LOD 0.54 pg/mL (not a Kd); 1 uM aptamer for immobilisation, IL-6 incubated 30 min with stirring; binding buffer, salt, pH and temperature not given in the material
Conditions: protein: commercial; hairpin (stated)

Chain of interleukin-6 (IL-6) (P05231 30-212): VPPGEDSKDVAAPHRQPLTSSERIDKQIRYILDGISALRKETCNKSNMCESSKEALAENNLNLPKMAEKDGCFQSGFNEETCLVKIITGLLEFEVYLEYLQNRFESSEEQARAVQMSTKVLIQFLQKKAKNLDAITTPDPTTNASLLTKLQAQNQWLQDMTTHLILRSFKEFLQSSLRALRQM

B1: IL-6 aptamer (NH2-Apt) (ssDNA)
DNA: GGTGGCAGGAGGACTATTTATTTGCTTTTCT
modifications: 3'-NH2
binding result: binds
